Key:
[1] = target: recombinant human TNFα (rhTNFα) (human) (UniProt P01375); experiment: cell-based or functional assay
[2] = target: recombinant human TNFα (rhTNFα) (human) (UniProt P01375); experiment: SPR (BIAcore), biotinylated rhTNFα on streptavidin chip; [Ab] 6 nM
[3] = target: recombinant human TNFα (rhTNFα) (human) (UniProt P01375); experiment: SPR (BIAcore), biotinylated rhTNFα on streptavidin chip; [Ab] 3 nM
[4] = target: recombinant human TNFα (rhTNFα) (human) (UniProt P01375); experiment: SPR (BIAcore), biotinylated rhTNFα on streptavidin chip; [Ab] 50 nM
[5] = target: recombinant human TNFα (rhTNFα) (human) (UniProt P01375); experiment: SPR (BIAcore), biotinylated rhTNFα on streptavidin chip; [Ab] 25 nM
[6] = target: recombinant human TNFα (rhTNFα) (human) (UniProt P01375); experiment: SPR (BIAcore), summary table
[7] = target: recombinant human TNFα (rhTNFα) (human) (UniProt P01375); experiment: SPR (BIAcore), biotinylated rhTNFα on streptavidin chip; [Ab] 400 nM
[8] = target: recombinant human TNFα (rhTNFα) (human) (UniProt P01375); experiment: SPR (BIAcore), biotinylated rhTNFα on streptavidin chip; average over the concentrations
[9] = target: recombinant human TNFα (rhTNFα) (human) (UniProt P01375); experiment: SPR (BIAcore), biotinylated rhTNFα on streptavidin chip; [Ab] 200 nM
[10] = target: recombinant human TNFα (rhTNFα) (human) (UniProt P01375); experiment: SPR (BIAcore), biotinylated rhTNFα on streptavidin chip; [Ab] 100 nM
[11] = target: recombinant human TNFα (rhTNFα) (human) (UniProt P01375); experiment: SPR (BIAcore), biotinylated rhTNFα on streptavidin chip; [Ab] 13 nM

recombinant human TNFα (rhTNFα) (human), sequence (P01375 77-233 limits assumed): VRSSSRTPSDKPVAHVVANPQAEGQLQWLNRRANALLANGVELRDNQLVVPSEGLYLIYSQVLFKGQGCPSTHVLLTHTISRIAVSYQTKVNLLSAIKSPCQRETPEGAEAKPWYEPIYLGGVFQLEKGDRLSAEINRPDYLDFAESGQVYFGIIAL

Question: “MAK 195 F(ab′)2 fragment (murine anti-hTNFα mAb)” was tested. Which IC50, neutralization of TNFα-induced L929 cytotoxicity [1] did it give?
Answer: Its IC50, neutralization of TNFα-induced L929 cytotoxicity is 0.062 nM.

Question: And the Ab, bound, RUs [2]?
Answer: Its Ab, bound, RUs is 433 RU.

Question: What about the koff [2] of the same substance?
Answer: The koff was 7.37e-05 s⁻¹.

Question: What about the rhTNFα/Ab [2] of the same substance?
Answer: Its rhTNFα/Ab is 0.47.

Question: What about the Ab, bound, RUs [3] of the same substance?
Answer: The Ab, bound, RUs was 231 RU.

Question: And the koff [3]?
Answer: The koff was 6.95e-05 s⁻¹.

Question: What about the rhTNFα/Ab [3] of the same substance?
Answer: Its rhTNFα/Ab is 0.26.

Question: And the Ab, bound, RUs [4]?
Answer: The Ab, bound, RUs was 1110 RU.

Question: And the koff [4]?
Answer: Its koff is 3.67e-05 s⁻¹.

Question: And the rhTNFα/Ab [4]?
Answer: Its rhTNFα/Ab is 1.32.

Question: What about the Ab, bound, RUs [5] of the same substance?
Answer: The Ab, bound, RUs was 957 RU.

Question: And the koff [5]?
Answer: The koff was 4.41e-05 s⁻¹.

Question: What about the rhTNFα/Ab [5] of the same substance?
Answer: Its rhTNFα/Ab is 1.09.

Question: And the Kd [6]?
Answer: The Kd was 0.46 nM.

Question: And the Stoichiometry [6]?
Answer: The Stoichiometry was 1.4.

Question: And the koff [6]?
Answer: The koff was 8.7e-05 s⁻¹.

Question: And the kon [6]?
Answer: Its kon is 190000 M⁻¹ s⁻¹.

Question: What about the Ab, bound, RUs [7] of the same substance?
Answer: The Ab, bound, RUs was 881 RU.

Question: And the koff [7]?
Answer: Its koff is 5.38e-05 s⁻¹.

Question: And the rhTNFα/Ab [7]?
Answer: Its rhTNFα/Ab is 1.2.

Question: What about the koff [8] of the same substance?
Answer: Its koff is 4.94e-05 s⁻¹.

Question: And the Ab, bound, RUs [9]?
Answer: Its Ab, bound, RUs is 1080 RU.

Question: And the koff [9]?
Answer: The koff was 4.54e-05 s⁻¹.

Question: What about the rhTNFα/Ab [9] of the same substance?
Answer: Its rhTNFα/Ab is 1.38.

Question: And the Ab, bound, RUs [10]?
Answer: The Ab, bound, RUs was 1140 RU.

Question: What about the koff [10] of the same substance?
Answer: Its koff is 3.54e-05 s⁻¹.

Question: What about the rhTNFα/Ab [10] of the same substance?
Answer: The rhTNFα/Ab was 1.39.

Question: What about the Ab, bound, RUs [11] of the same substance?
Answer: Its Ab, bound, RUs is 708 RU.

Question: And the koff [11]?
Answer: The koff was 3.66e-05 s⁻¹.

Question: What about the rhTNFα/Ab [11] of the same substance?
Answer: The rhTNFα/Ab was 0.78.

— patent publication US20100040604A1
